Source: patent US20230227832, “ANTICANCER APTAMERS AND USES THEREOF” (CONSIGLIO NAZIONALE DELLE RICERCHE, published 2023)

Tests used:
[1] = molecular target: T1, Gremlin-1 (GREM1), recombinant human (Homo sapiens, UniProt O60565 O60565:25-184); assay: ELONA; room temperature, PBS; biotinylated aptamer, streptavidin-HRP; details: label: biotin
T1 sequence: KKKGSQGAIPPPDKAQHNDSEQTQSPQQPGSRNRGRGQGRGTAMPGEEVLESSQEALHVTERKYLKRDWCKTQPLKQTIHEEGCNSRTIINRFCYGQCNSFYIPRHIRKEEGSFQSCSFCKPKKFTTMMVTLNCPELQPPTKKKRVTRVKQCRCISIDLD

[2] = molecular target: Serum albumin (HSA) (Homo sapiens, UniProt P02768 P02768:25-609); assay: ELONA; plate coated with 30 nM HSA; figure legend says bovine serum albumin; details: tags: Sigma Aldrich; label: biotin
Protocol: For ELONA, wells of a 96-well High Binding microplate (Nunc MaxiSorp) were left uncoated or coated with exosomes (4 μg) o.n. All the subsequent steps were performed at room temperature. Following incubation, the plate was blocked with 300 μl 3% BSA (AppliChem) in PBS for 2 hours and incubated with 100 μL biotinylated aptamers (Tebu-bio), dissolved in PBS for 2 hours. Then the plate was washed three times with 300 μl PBS and streptavidin-HPR dissolved in 100 μl PBS (Sigma Aldrich) was added with dilution 1:10000. After 1 hour of incubation, the plate was washed three times before the addition of the TMB developing solution. The reaction was stopped with 0.16 M sulfuric acid and signal strength was analyzed by measuring absorbance at 450 nm with a microplate reader (Thermo Scientific).
MDA-MB-231-derived exosomes and increasing concentrations of aptamer (ex-50.T or control) were used to calculate the binding affinity. The Kd was determined by means of GraphPad Prism. To verify the binding on human serum alumina (HSA), the plate coating was performed at 30 nM HSA (Sigma Aldrich).

Sequence of Serum albumin (HSA) (P02768 25-609, one chain of several): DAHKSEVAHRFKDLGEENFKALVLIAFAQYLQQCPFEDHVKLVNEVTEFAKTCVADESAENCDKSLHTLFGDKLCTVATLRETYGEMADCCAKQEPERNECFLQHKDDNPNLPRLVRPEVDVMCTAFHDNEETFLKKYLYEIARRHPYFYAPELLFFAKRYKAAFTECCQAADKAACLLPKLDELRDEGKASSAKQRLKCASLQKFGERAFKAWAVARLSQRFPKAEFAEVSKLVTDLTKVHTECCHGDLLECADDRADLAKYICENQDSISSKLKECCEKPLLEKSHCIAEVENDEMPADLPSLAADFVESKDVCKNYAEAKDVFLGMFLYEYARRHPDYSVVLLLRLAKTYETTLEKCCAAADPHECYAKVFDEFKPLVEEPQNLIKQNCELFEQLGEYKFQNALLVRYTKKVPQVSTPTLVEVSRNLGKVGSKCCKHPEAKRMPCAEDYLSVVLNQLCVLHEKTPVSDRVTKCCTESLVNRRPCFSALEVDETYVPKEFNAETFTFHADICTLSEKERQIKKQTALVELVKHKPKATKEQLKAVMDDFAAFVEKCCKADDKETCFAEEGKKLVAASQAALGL

In the case of UGUGGCAGUUAAGAAUAGAUCUUCGCUGCGAUU (ssRNA, 2'-F pyrimidines (2'-F-C, 2'-F-U; per library chemistry)) [ex-50.T], the Kd [1] is reported as 37.7 nM and the binding result [2] is reported as “no binding”.
